Reference: patent publication US20220282255, “APTAMER FOR TGF-BETA1 AND USE OF SAME” (RIBOMIC INC., published 2022)

B1: SEQ ID NO: 28 (ssRNA)
RNA: GGGAAUGCACUAGUGUUCAAUAAACACUAAGUGAUCCUCCUGCAAGCUAUGAAGAACUUAACGGCUCGUAAAGCUUGCACGUCGAGUCAG
modifications: 2'-F all pyrimidines (U,C)
B2: SEQ ID NO: 11 (ssRNA)
RNA: GGGAUCCGCAUCUAGAGUACCGCGUGAGCGGCGUCUUGCUAUGACGUAAAGAAUCGUUACAACGUCUACUGAAGCUAUCA
modifications: 2'-F all pyrimidines (U,C)
B3: SEQ ID NO: 22 (ssRNA)
RNA: GGGAGAACUUGGAGCUUGACGGCGCUACAUUAUGCUCCAACGGUACUUUAUAGUGCGACGUCAGUC
modifications: 2'-F all pyrimidines (U,C)
B4: SEQ ID NO: 5 (ssRNA)
RNA: GGGAUCCGCAUCUAGAGUACAUCGUGGCGGGAAAGCCGCCCCAUUCUCUCGGGUCCUAGAAACGUCUACUGAAGCUAUCA
modifications: 2'-F all pyrimidines (U,C)
B5: SEQ ID NO: 20 (ssRNA)
RNA: GGGAGAACUUGGAGCUGGUCCGGAAACUGGAUUCUCUCUAAAAGGGGUACCAGUGCGACGUCAGUC
modifications: 2'-F all pyrimidines (U,C)
B6: SEQ ID NO: 18 (ssRNA)
RNA: GGGAGAACUUGGAGCUCCCCCUCGCACUUAAUGGGUUCUGUGGCUGGAGAAAGUGCGACGUCAGUC
modifications: 2'-F all pyrimidines (U,C)

Target: T1, TGF-β1 (Homo sapiens, UniProt P01137 P01137:279-390)
T1 sequence (P01137 279-390, one chain of several): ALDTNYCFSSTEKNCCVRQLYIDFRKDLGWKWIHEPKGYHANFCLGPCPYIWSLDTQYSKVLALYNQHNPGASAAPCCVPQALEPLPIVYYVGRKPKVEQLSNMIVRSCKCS
Experiment: SPR; ++
Details: tags: Recombinant Human TGF-β1, Peprotech; chain copies: 2 (homodimer, inferred)

Binder | binding result
B1 | binds
B2 | binds
B3 | binds
B4 | binds
B5 | binds
B6 | binds

Target: T1, TGF-β1
Experiment: SPR; receptor-binding inhibition, 4 nM:4 nM
Details: tags: Recombinant Human TGF-β1, Peprotech; chain copies: 2 (homodimer, inferred)
Experimental: Measurement of Inhibitory Activity of Aptamer Against TGF-β1-2 Whether or not the nucleic acids of SEQ ID NOs: 6, 9, 19, 21, 26 inhibit the binding of TGF-β1 to the TGF-β receptor was evaluated by surface plasmon resonance method. For the measurement, Biacore T200 manufactured by GE Healthcare was used, and the measurement was performed by the method shown below. About 1500 RU of protein A was immobilized on the surface of a sensor chip of CM4 chip by using an amine coupling kit. 20 μL of Fc fusion TRII receptor (R&D) adjusted to 30 nM was injected as an analyte at a flow rate of 20 μL/min. As a result, the Fc fusion TRII receptor was immobilized on the surface of the sensor chip of the CM4 chip via protein A. Furthermore, a mixed solution of TGF-β1 (4 nM) or TGF-β1 (10 nM), and nucleic acid (30 nM) was injected. Solution A was used as the running buffer. Based on the RU value of a sample injected with TGF-β1 alone and the RU value before injection of TGF-β1, the effect of suppressing an increase in the RU value when TGF-β1 was injected in the presence of nucleic acid was calculated as the effect of inhibiting the binding of TGF-β1 to the TRII receptor.
The nucleic acids of SEQ ID NOs: 42(2-1)-42(2-8) used were chemically synthesized and purified by HPLC. Whether or not these nucleic acids inhibit the binding of TGF-β1 to the TGF-β receptor was determined by injecting a mixed solution of TGF-β1 (4 nM) and nucleic acid (4 nM) in the same manner as in Example 4, and evaluating by the surface plasmon resonance method. Whether or not these nucleic acids inhibit the activity of TGF-β1 was evaluated by adding to the final concentrations of TGF-β1 (80 pM) and nucleic acid (312.5 pM), and by a luciferase reporter assay as in Example 4.

Binder | binding signal [% inhibition]
GGCAUAAGGGAGGGGAGACUUGUGGAGGGCAAG (ssRNA, 2'-OMe at A4, A11; 2'-F all pyrimidines) [SEQ ID NO: 42(2-3)] | 70.7
GGCAUAAGGGAGGGGAGACUUGUGGAGGGCAAG (ssRNA, 2'-OMe at A11, A32; 2'-F all pyrimidines) [SEQ ID NO: 42(2-7)] | 78.9
GGCAUAAGGGAGGGGAGACUUGUGGAGGGCAAG (ssRNA, 2'-OMe at A11, G33; 2'-F all pyrimidines) [SEQ ID NO: 42(2-8)] | 83
GGCAUAAGGGAGGGGAGACUUGUGGAGGGCAAG (ssRNA, 2'-OMe at A11, A31; 2'-F all pyrimidines) [SEQ ID NO: 42(2-6)] | 81.8
GGCAUAAGGGAGGGGAGACUUGUGGAGGGCAAG (ssRNA, 2'-OMe at A11, A26; 2'-F all pyrimidines) [SEQ ID NO: 42(2-1)] | 75.2
GGCAUAAGGGAGGGGAGACUUGUGGAGGGCAAG (ssRNA, 2'-OMe at A11, G17; 2'-F all pyrimidines) [SEQ ID NO: 42(2-5)] | 75.6
GGCAUAAGGGAGGGGAGACUUGUGGAGGGCAAG (ssRNA, 2'-OMe at G1, A11; 2'-F all pyrimidines) [SEQ ID NO: 42(2-2)] | 76
GGCAUAAGGGAGGGGAGACUUGUGGAGGGCAAG (ssRNA, 2'-OMe at A11, A16; 2'-F all pyrimidines) [SEQ ID NO: 42(2-4)] | 84.2

Target: T1, TGF-β1
Experiment: cell_activity; 80 pM:312.5 pM
Details: tags: Recombinant Human TGF-β1, Peprotech; chain copies: 2 (homodimer, inferred)
Experimental: Whether the nucleic acids of SEQ ID NOs: 4-13, 17-22, 26-28 inhibit the activity of TGF-β1 was evaluated by a cell assay system that monitors Smad signaling pathway known to be activated by the stimulation of TGF-β. To be specific, photinus luciferase equipped with SBE (Smad-binding element) in the promoter region was used as a reporter (pGL4.48[luc2P/SBE/Hygro] Vector, Promega KK). Together with this SBE-induced photinus luciferase reporter plasmid, a renillaluciferase expression plasmid (pGL4.74[hRluc/TK] Vector, Promega KK) was mixed at a ratio of 20:1 as a standardized control for transfection efficiency, and transfected into HEK293 cells. The transfected HEK293 cells were re-seeded in a 96-well plate and cultured until confluent. […] Thereafter, the expression levels of photinus luciferase and renillaluciferase were confirmed using Dual-Luciferase (registered trade mark) Reporter Assay System (Promega KK). The measurement value of photinus luciferase in each sample was corrected with the measured value of renillaluciferase, and the relative expression level of each sample was calculated by setting the ratio of photinus luciferase and renillaluciferase in a sample free of addition of TGF-β1 as 1. […] When a nucleic acid pool of 35N, 40N or 50N (SEQ ID NO: 14, 1, 23) was used as a negative control and a known TGF-β antibody (R&D, MAB1835) was used as a positive control, the same treatment and measurement were performed.
The nucleic acids of SEQ ID NOs: 42(2-1)-42(2-8) used were chemically synthesized and purified by HPLC. Whether or not these nucleic acids inhibit the binding of TGF-β1 to the TGF-β receptor was determined by injecting a mixed solution of TGF-β1 (4 nM) and nucleic acid (4 nM) in the same manner as in Example 4, and evaluating by the surface plasmon resonance method.

Binder | activity [% inhibition]
GGCAUAAGGGAGGGGAGACUUGUGGAGGGCAAG (ssRNA, 2'-OMe at A4, A11; 2'-F all pyrimidines) [SEQ ID NO: 42(2-3)] | 66
GGCAUAAGGGAGGGGAGACUUGUGGAGGGCAAG (ssRNA, 2'-OMe at A11, A32; 2'-F all pyrimidines) [SEQ ID NO: 42(2-7)] | 78
GGCAUAAGGGAGGGGAGACUUGUGGAGGGCAAG (ssRNA, 2'-OMe at A11, G33; 2'-F all pyrimidines) [SEQ ID NO: 42(2-8)] | 72
GGCAUAAGGGAGGGGAGACUUGUGGAGGGCAAG (ssRNA, 2'-OMe at A11, A31; 2'-F all pyrimidines) [SEQ ID NO: 42(2-6)] | 72
GGCAUAAGGGAGGGGAGACUUGUGGAGGGCAAG (ssRNA, 2'-OMe at A11, A26; 2'-F all pyrimidines) [SEQ ID NO: 42(2-1)] | 61
GGCAUAAGGGAGGGGAGACUUGUGGAGGGCAAG (ssRNA, 2'-OMe at A11, G17; 2'-F all pyrimidines) [SEQ ID NO: 42(2-5)] | 62
GGCAUAAGGGAGGGGAGACUUGUGGAGGGCAAG (ssRNA, 2'-OMe at G1, A11; 2'-F all pyrimidines) [SEQ ID NO: 42(2-2)] | 66
GGCAUAAGGGAGGGGAGACUUGUGGAGGGCAAG (ssRNA, 2'-OMe at A11, A16; 2'-F all pyrimidines) [SEQ ID NO: 42(2-4)] | 64
